Literature values as cited in patent publication US20050026224A1, “Methods and compositions for modulating G-protein coupled receptor 54” (priority 2003, published 2005).

Legend:
[1] = test system: GPR54 transfected CHO cells; settings: GPR54 transfected CHO cells in vitro; Ohtaki et al. 2001
[2] = test system: GPR54-transfected B16-BL6 melanomas; settings: GPR54-transfected B16-BL6 melanomas in vivo; Ohtaki et al. 2001
[3] = test system: GPR54 transfected CHO cells; settings: GPR54 transfected CHO cells in vitro; Ohtaki et al. 2001; remark: listed apart in the source
cell motility [4] = settings: Hori et al. 2001
cell motility [5] = settings: Hori et al. 2001; remark: listed apart in the source

B1: Metastin: peptide ligand agonist for GPR54; protein product of the Kiss-1 gene (SEQ ID NO: 4) (protein, listed as Homo sapiens)
chain: MNSLVSWQLLLFLCATHFGEPLEKVASVGNSRPTGQQLESLGLLAPGEQSLPCTERKPAATARLSRRGTSLSPPPESSGSRQQPGLSAPHSRQIPAPQGAVLVQREKDLPNYNWNSFGLRFGKREAAPGNHGRSAGRGWGAGAGQ
invasion [1]: inhibits | pulmonary metastasis [2]: attenuates pulmonary metastasis | chemotaxis [3]: inhibits chemotaxis | cell motility in a wound healing assay (cell motility [4]): suppress cell motility | cell motility in a chemotaxis assay (cell motility [5]): suppress cell motility
